Assay results published in paper PMC7809406, “Structure of a full-length bacterial polysaccharide co-polymerase” (Nature Communications, 2021).

Target: the molecule itself
Assay: cryo-EM structure; single-particle analysis of SEC population 1 in DDM (25 mM TRIS pH 8.0, 100 mM NaCl, 3% glycerol, 0.5 mM TCEP, 0.02% DDM), 3.0 mg/mL; protomers to octamer; maps with C1 and C8 symmetry

B1: Full-length WzzB polysaccharide co-polymerase of E. coli (natural protein, E. coli K12, UniProt P76372 1-326, looked up)
chain: MRVENNNVSGQNHDPEQIDLIDLLVQLWRGKMTIIISVIVAIALAIGYLAVAKEKWTSTAIITQPDVGQIAGYNNAMNVIYGQAAPKVSDLQETLIGRFSSAFSALAETLDNQEEREKLTIEPSVKNQQLPLTVSYVGQTAEGAQMKLAQYIQQVDDKVNQELEKDLKDNIALGRKNLQDSLRTQEVVAQEQKDLRIRQIQEALQYANQAQVTKPQIQQTGEDITQDTLFLLGSEALESMIKHEATRPLVFSPNYYQTRQNLLDIESLKVDDLDIHAYRYVMKPMLPIRRDSPKKAITLILAVLLGGMVGAGIVLGRNALRNYNAK
notes: WzzB, polysaccharide co-polymerase (O-antigen chain length regulator), amplified from E. coli K12 genomic DNA; full-length gene; Integral membrane protein in a DDM micelle; The 8×His tag is non-cleavable (modified pWaldo vector); About 25% of the particles are dimers of the octamer; also called native protein; polysaccharide co-polymerase (PCP) Wzz; source: E. coli C41, membranes solubilized with …
  stoichiometry N: 8

B2: N-terminal truncated WzzB, missing residues 1-15 (truncated E16M variant) (domain or fragment, E. coli K12, UniProt P76372 16-326, looked up)
chain: MQIDLIDLLVQLWRGKMTIIISVIVAIALAIGYLAVAKEKWTSTAIITQPDVGQIAGYNNAMNVIYGQAAPKVSDLQETLIGRFSSAFSALAETLDNQEEREKLTIEPSVKNQQLPLTVSYVGQTAEGAQMKLAQYIQQVDDKVNQELEKDLKDNIALGRKNLQDSLRTQEVVAQEQKDLRIRQIQEALQYANQAQVTKPQIQQTGEDITQDTLFLLGSEALESMIKHEATRPLVFSPNYYQTRQNLLDIESLKVDDLDIHAYRYVMKPMLPIRRDSPKKAITLILAVLLGGMVGAGIVLGRNALRNYNAK
notes: WzzB of E. coli K12 missing the first 15 amino acids; a start codon was introduced at position 16 (E16M); Same vector and non-cleavable C-terminal 8×His tag as m1; Virtually all particles are dimers of octamers; also called N-terminally truncated WzzB; N-terminally truncated variant; source: E. coli C41, membranes solubilized with 1% DDM, purified (Ni-NTA, Superdex 200 SEC); not shown: 8×His, …
  stoichiometry N: 8
